In patent US20240409645A1 (DUALYX, published 2024):

T1: human IL-2Rβ (human, UniProt P14784 27-240, limits assumed)
T1 construct: recombinant protein, coated or immobilised; also called hu IL-2R; IL-2R beta
T1 sequence: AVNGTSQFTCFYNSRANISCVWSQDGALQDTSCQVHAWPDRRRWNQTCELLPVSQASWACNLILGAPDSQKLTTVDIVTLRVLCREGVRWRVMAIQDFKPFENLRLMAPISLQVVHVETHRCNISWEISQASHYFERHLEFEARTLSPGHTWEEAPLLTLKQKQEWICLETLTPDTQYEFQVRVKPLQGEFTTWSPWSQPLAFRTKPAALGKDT

B1: FJ1427_P035MP02A06 (VHH)
VHH: QVQLQESGGGLVQAGGSLRLSCAASGGTFSSYAMGWFRQAPGKEREFVAATTRGGGRTMYAVSTEGRFTCSRDNDKNTVYLLMNSLKPKDTAVYYCAAMTSYYSGTYYPDSSDFDIWGQGTQVTVSS
notes: soluble VHH in periplasmic extract; also called clone nr
B2: FJ1427_P035MP02B04 (VHH)
VHH: EVQLVESGGGLVQAGGSLGLSCAASGGTFSSYAMGWFRQAPGKEREFVAATTRGGGRTMYAVSTEGRFTCSRDNAKNTVYLQMNSLKPKDTAIYYCAAMTSYYSGTYYPDSSDFDIWGQGTQVTVSS
notes: as for B1
B3: FJ1427_P035MP02D03 (VHH)
VHH: QVQLVESGGGLVQAGGPLRLSCAASGGTFSSYAMGWFRQAPGKEREFVAATTRGGGRTMYAVSTEGRFTCSRDNAKNTVYLLMNSLKPEDTAVYYCAAMTSYYSGTYYPDSSDFDIWGQGTQVTVSS
notes: as for B1
B4: FJ1427_P035MP02E04 (VHH)
VHH: EVQLVESGGGLVQAGGSLRLSCAASGGTFSSYAMGWFRQAPGKEREFVAATTRGGGRTMYAVSTEGRFTCSRDNAKNTVYLQMNSLKPKDTAIYYCAAMTSYYSGTYYPDSSDFDIWGQGTQVTVSS
notes: as for B1
B5: FJ1427 P035MP02C01 (VHH)
VHH: QVQLVESGGGLVQPGGSLGLSCAASGFTFDNYAMSWVRQAPGKGLEWVSSITGAGRGTHYADSVKGRFTISRDNAKNTLYLQMNSLKPEDTAVYYCAKYSSSTYYPPTPARGTDYRGPGTQVTVSS
notes: soluble VHH in periplasmic extract; also called clone nr; 99
B6: FJ1427 P035MP02C06 (VHH)
VHH: QLQLVESGGGLVQPGGSLELSCAASGFTFSNYAMSWVRQAPGKGLEWVSSITGFGRGTDYADSVKGRFTISRDNAKNTLYLQMNSLKPEDTAVYYCARYSSSTYYPPTPARGRDYRGQGTQVTVSS
notes: as for B1
B7: FJ1427 P035MP02D05 (VHH)
VHH: QVQLVESGGGLVQPGESLGLSCAASGFTFSNYAMSWVRQAPGKGLEWVSSITGAGRGTDYADSVKGRFTISRDNAKNTLYLQMNSLKPEDTAVYYCAKYSSGTYYPPTPVRGTDYRGQGTQVTVSS
notes: as for B1
B8: FJ1427 P035MP02E06 (VHH)
VHH: QVQLVESGGGSVQPGGSLRLSCAASGFTFSNYAMSWVRQAPGKGLEWVASITGFGRGTDYADSVKGRFTISRDNAEDTLYLQMNSLKPEDTAVYYCAKYSSSTYYPPTPARGRDYRGQGTQVTVSS
notes: soluble VHH in periplasmic extract; also called 15-MP02E06; clone nr
B9: FJ1427_P035MP02A02 (VHH)
VHH: QVQLVESGGGLVQPGGSLRLSCAASGFTFDNYAMTWVRQAPGKGLEWVSSITGAGRGTHYADSVKGRFTISRDNAKNTLYLQVNSLKPEDTAVYYCARYSSSTYYPTTPVRGTDYRGQGTQVTVSS
notes: as for B1
B10: FJ1427_P035MP02A03 (VHH)
VHH: QVQLVESGGGLVQPGGSLRLSCAASGFTFSNYAMSWVRQAPGKGLEWVSSITGAGRGTYYAESVKGRFTISRDNDKNTLYLQMNSLKPEDTAVYYCAKYDSSTFYPPTPARGIADRGQGTRVTVSS
notes: as for B1
B11: FJ1427_P035MP02B06 (VHH)
VHH: QVQLVESGGGLVQPGESLGLSCAASGFTFSNYAMSWVRQAPGKGLEWVSSITGAGRGTDYADSVKGRFTISRDNAKNTLYLQMNSLKPEDTAVYYCAKYSSGTYYPPTPVRGTDYRGQGTQVTVSS
notes: as for B1
B12: FJ1427_P035MP02C04 (VHH)
VHH: QVQLVESGGGLVQPGGSLELSCAASGFTFSNYAMSWVRQAPGKGLEWVSSITGFGRGTDYADSVKGRFTISRDNDKNTLYLQMNSLKPEDTAVYYCARYSSSTYYPPTPARGRDYRGQGTQVTVSS
notes: as for B1
B13: FJ1427_P035MP02G03 (VHH)
VHH: QVQLVESGGGLVQPGGSLGLSCAASGFTFSNYAMSWVRQAPGKGLEWVASITGFGRGTDYADSVKGRFTVSRDNAKNTLYLQMNSLKPEDTAVYYCAKYSSSTYYPPTPARGRDYRGQGTQVTVSS
notes: as for B1
B14: FJ1427 P035MP02E02 (VHH)
VHH: EVQLVESGGGLVQTGGSLRLSCAASGSQFINDVMGWYRQVPGKQRELVADMDDTGSTKYADSVKGRFTILRDSVKNTAYLQMSNLKPEDTGVYYCKAGLWIKGRHSDYWGQGTQVTVSS
notes: as for B1
B15: FJ1427 P035MP02A04 (VHH)
VHH: EVQLVESGGGLVQTGGSLRLSCTASGSQFINDVMGWYRQVPGKQRELVADMDDTGSTKYADSVNGRFTILRDSVKNTAYLQMSNLKPEDTGVYYCKAGLWIKGRHSDYWGQGTQVTVSS
notes: as for B1
B16: FJ1427 P035MP02C03 (VHH)
VHH: EVQLVESGGGLVQTGGSLRLSCAASGSQFINDVMGWYRQVPGKQRELVADMDDTGSTEYADSVKGRFTILRDSVKNTAYLQMSNLKPEDTGVYYCKAGLWIKGRHFDYWGQGTQVTVSS
notes: soluble VHH in periplasmic extract; also called 14-MP02C03; clone nr
B17: FJ1427 P035MP02C05 (VHH)
VHH: QVQLVESGGGLVQTGGSLRLSCAVSGSRFISDVMGWYRQVPGKQRELVADMADGGSAKYADSVKGRFSILRDSVKNTVYLQMSSLKPEDTGIYYCKAGLWIAGRHSDYWGQGTQVTVSS
notes: as for B1
B18: FJ1427 P035MP02D01 (VHH)
VHH: QVQLQESGGGLVQTGGSLRLSCAASGSQFINDVMGWYRQVPGKQRELVADMDDTGSTKYADSVKGRFTILRDSVKNTAYLQMSNLKPEDTGVYYCKAGLWIKGRHSDYWGQGTQVTVSS
notes: soluble VHH in periplasmic extract; also called clone nr; 100
B19: FJ1427 P035MP02F04 (VHH)
VHH: EVQLVESGGGLVQTGGSLRLSCAASGSQFINDVMGWYRQVPGKQRELVADMDDTGSTKYADSVKGRFTILRDSVKNTAYLQMSNLKPEDTGVYYCKAGLWIKGRHFDYWGQGTQVTVSS
notes: as for B1
B20: FJ1427 P035MP02G05 (VHH)
VHH: EVQLVESGGGLVQTGGSLRLSCAASGSQFINDVTGWYRQVPGKQRELVADMDDTGSTKYADSVKGRFTILRDSVKNTAYLQMSNLKPEDTGVYYCKAGLWIKGRHSDYWGQGTQVTVSS
notes: as for B1
B21: FJ1427_P035MP02B01 (VHH)
VHH: QVQLVESGGGLVQTGGSLRLSCAASGSQFINDVMGWYRQVPGKQRELVADMDDTGSTKYADSVKGRFTILRDSVKNTAYLQMSNLKPEDTGVYYCKAGLWIKGRHFDYWGQGTQVTVSS
notes: soluble VHH in periplasmic extract; also called clone nr; 98
B22: FJ1427_P035MP02B05 (VHH)
VHH: EVQLVESGGGLVQTGGSLRLSCAASGSQFINDVMGWYRQVPGKQRELVADMDDTGSTKYADSVKGRFTILRDSVKNTAYLQMSNLKPEDTGVYYCKAGLWIKGRHFDYWGQGTQVTVSS
notes: soluble VHH in periplasmic extract; also called clone nr; 130
B23: FJ1427_P035MP02D04 (VHH)
VHH: QVQLVESGGGLVQTGGSLRLSCAVSGSRFISDVMGWYRQVPGKQRELVADMADGGSAKYADSVKGRFSILRDSVKNTVYLQMSSLKPEDTGIYYCKAGLWIAGRHSDYWGQGTQVTVSS
notes: as for B1
B24: FJ1427_P035MP02F01 (VHH)
VHH: EVQLVESGGGLVQTGGSLRLSCAVSGSRFISDVMGWYRQVPGKQRELVADMADGGSAKYADSVKGRFSILRDSVKNTVYLQMSSLKPEDTGIYYCKAGLWIAGRHSDYWGQGTQVTVSS
notes: as for B1
B25: FJ1427_P035MP02F05 (VHH)
VHH: EVQLVESGGGLVQTGGSLRLSCAVSGSRFISDVMGWYRQVPGKQRELVADMADGGSAKYADSVKGRFSILRDSVKNTVYLQMSSLKPEDTGIYYCKAGLWIAGRHSDYWGQGTQVTVSS
notes: as for B1
B26: FJ1427_P035MP02G04 (VHH)
VHH: QVQLVESGGGLVQAGGSLRLSCAASGSQFINDVMGWYRQVPGKQRELVADMDDTGSTKYADSVKGRFTILRDSVKNTAYLQMSNLKPEDTGVYYCKAGLWIKGRHFDYWGQGTQVTVSS
notes: as for B1
B27: FJ1427_P035MP02A05 (VHH)
VHH: EVQLVESGGGLVQTGGSLRLSCAASGSQFINDVMGWYRQVPGKQRELVADMDDTGSTKYADSVKGRFTILRDSVKNTAYLQMSNLKPEDTGVYYCKAGLWIKGRHSDYWGQGTQVTVSS
notes: as for B1
B28: FJ1427_P035MP02E01 (VHH)
VHH: EVQLVESGGGLVQIGGSLRLSCAASGRTFSSITMAYFRQVPGKEREWVAGINFSGTRTFYADSVKGRFLISRDDAKSTMYLQMNSLKPEDTAVYYCAASPRGFYGPGNALYDYWGQGTQVTVSS
notes: as for B1

What was measured:
human IL-2Rβ [1] = target: T1, human IL-2Rβ; experiment: P.E. ELISA, coated protein
Procedure: In a binding ELISA, human or mouse IL-2Rα, IL-2Rβ and IL-2Rγ proteins were coated directly on maxisorp microtiter plates overnight at 4° C. Free binding sites were blocked using 4% Marvel in PBS for 1 hour. Next, 1:5 dilution of P.E. in 1% Marvel/PBS were added to wells and incubated for 1 hour. […] Binding specificity was determined based on O.D. at 450 nm values compared to negative controls.

human IL-2Rβ [2] = target: T1, human IL-2Rβ; experiment: SPR, P.E. off-rate
Procedure: SPR was performed to determine dissociation rates using Biacore 3000 instrument (GE Healthcare). Briefly, human and mouse IL-2R proteins were immobilized on carboxylmethyl dextran sensor chip (CM5) at approximately 2500 RUs using amine coupling in acetate buffer (GE Healthcare). The VHH-containing P.E. were loaded with a flow rate of 30 uL/min and the off-rates were measured over a 120s period.

| Binder | P.E. binding ELISA OD (human IL-2Rβ [1]) | koff (human IL-2Rβ [2]) |
| --- | --- | --- |
| B1 | 2.55 OD450 nm | 0.000484 s⁻¹ |
| B2 | 0.375 OD450 nm | 0.000449 s⁻¹ |
| B3 | 0.286 OD450 nm | 0.000226 s⁻¹ |
| B4 | 0.255 OD450 nm | 0.000716 s⁻¹ |
| B5 | 0.7 OD450 nm | 0.000789 s⁻¹ |
| B6 | 0.351 OD450 nm | 0.00217 s⁻¹ |
| B7 | 0.118 OD450 nm | 0.00279 s⁻¹ |
| B8 | 0.581 OD450 nm | 0.00169 s⁻¹ |
| B9 | 0.223 OD450 nm | 0.00262 s⁻¹ |
| B10 | 0.207 OD450 nm | 0.000571 s⁻¹ |
| B11 | 0.125 OD450 nm | 0.0046 s⁻¹ |
| B12 | 0.424 OD450 nm | 0.00255 s⁻¹ |
| B13 | 0.197 OD450 nm | 0.00293 s⁻¹ |
| B14 | 0.254 OD450 nm | 0.000269 s⁻¹ |
| B15 | 0.533 OD450 nm | 0.000368 s⁻¹ |
| B16 | 0.183 OD450 nm | 0.000714 s⁻¹ |
| B17 | 0.237 OD450 nm | 0.000346 s⁻¹ |
| B18 | 0.573 OD450 nm | 0.000167 s⁻¹ |
| B19 | 0.516 OD450 nm | 0.000343 s⁻¹ |
| B20 | 0.567 OD450 nm | 0.000432 s⁻¹ |
| B21 | 0.271 OD450 nm | 0.000119 s⁻¹ |
| B22 | 0.553 OD450 nm | 0.000292 s⁻¹ |
| B23 | 0.447 OD450 nm | 0.000358 s⁻¹ |
| B24 | 0.469 OD450 nm | 0.0003 s⁻¹ |
| B25 | 0.206 OD450 nm | 0.000334 s⁻¹ |
| B26 | 0.549 OD450 nm | 0.000295 s⁻¹ |
| B27 | 0.263 OD450 nm | 0.000444 s⁻¹ |
| B28 | 1.11 OD450 nm | 4.5e-05 s⁻¹ |
